Tested on: MS2 coat protein
Test: apparent KD of MS2 coat protein; designed switch direction (-1 OFF switch, 1 ON switch): -1; higher = weaker reporter binding
How it was run: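 The apparent KD reported per design is the median over clusters of curve fits to normalised cluster fluorescence. The RNA switches were transcribed on Illumina chips by stalled E. coli RNA polymerase. SNAP-549-labelled MS2 coat protein was titrated from 0.7 or 1.5 nM, doubling up to 3 µM, in Tris-HCl pH 7.5 buffer containing KCl, MgCl2, BSA, DTT, tRNA and Tween-20, with no input, 200 uM small-molecule ligand, or an oligonucleotide input.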

[1] = input ligand: microRNA oligo, concentration not stated
[2] = Eterna round: R95, input ligand: FMN 200 uM
[3] = Eterna round: R95, input ligand: microRNA oligo, concentration not stated
[4] = Eterna round: R95, input ligand: none

## UAUUAGCAAGCGAGAUCCCACAUGAGGAUCACCCAUGUGCUCGUCUUAUAAAGUACUGUGACGAAAGUCACGGUACA [Sensor 3, v1 - 91 v3] (Eterna round: R97, puzzle: Sensor, turn-off variant 1)
Input ligand: FMN 200 uM
  apparent KD of MS2 coat protein: 14.3 nM
Input ligand: none
  apparent KD of MS2 coat protein: 12.8 nM

## GCUGCACAUGUAGGAUAUCUGCACGUUUAGUGCAGAGAAGGACAUGAGGAUCACCCAUGUAGAUCAGCAGCAAUUAAUUUAAUU [ENG1/6-A3] (Eterna round: R96, puzzle: Exclusion NG 1)
Input ligand: FMN 200 uM
  apparent KD of MS2 coat protein: 809 nM
[1]
  apparent KD of MS2 coat protein: 479 nM
Input ligand: none
  apparent KD of MS2 coat protein: 473 nM

## AAGAGGUCAGGAUAUACGGAGAGAGGGAGUUGGUUAGGGUAACAUGAGGAUCACCCAUGUAGAAGGGACUAAGA [JR_Exclu2_Sub079] (puzzle: Exclusion 2)
[2]
  apparent KD of MS2 coat protein: 23.4 nM
[3]
  apparent KD of MS2 coat protein: 23.1 nM
[4]
  apparent KD of MS2 coat protein: 25.1 nM

## GGAUCGAAUGUGAGGAUAUACCUAUGGAAACAUAGGUAGAAGGCACAUGAGGAUCACCCAUGUCCAAACGGUCC [Mat - Exclusion 4 - Eli Mod - D13] (Eterna round: R97, puzzle: Brourd's mod of Exclusion 4)
Input ligand: FMN 200 uM
  apparent KD of MS2 coat protein: 1050 nM
Input ligand: none
  apparent KD of MS2 coat protein: 225 nM

## AGAUCACAUGAGGAUCACCCAUGUCAGGAUAUCGUCACUGGAGCUGCGGCUCCAGUGACGAGAAGGGAUAAUUA [E1/4-A3] (Eterna round: R97, puzzle: Exclusion 1)
Input ligand: FMN 200 uM
  apparent KD of MS2 coat protein: 92.4 nM
Input ligand: none
  apparent KD of MS2 coat protein: 52 nM

## ACAAGCUUUUAGAUUCUUAACAUGAGGAUCACCCAUGUGCUCGUCUUACCGGCCGGCGGGCCGCCGGCCGGGCUUGU (Eterna round: R97, puzzle: Sensor, turn-off variant 1)
Input ligand: FMN 200 uM
  apparent KD of MS2 coat protein: 18.5 nM
Input ligand: none
  apparent KD of MS2 coat protein: 18.5 nM

## CUGCUCCGUGUAGGAUAUGCCCGCACCACCCGGGCAGAAGGACAUGAGGAUCACCCAUGUAUGUUAUUAUCACGUGUGGCGCGC [Design 39] (Eterna round: R96, puzzle: Exclusion NG 1)
Input ligand: FMN 200 uM
  apparent KD of MS2 coat protein: 23.7 nM
[1]
  apparent KD of MS2 coat protein: 11.7 nM
Input ligand: none
  apparent KD of MS2 coat protein: 16.4 nM

## AGUACUAACACGAGUGUGUUAGUACAAUAAGCUUGUGAAACAUGAGGAUCACCCAUGUCCUCAUAAGCUCGUCUUAU [salish99_TOv2_r3_073] (puzzle: Sensor v3, turn-off variant 2)
[2]
  apparent KD of MS2 coat protein: 17.8 nM
[3]
  apparent KD of MS2 coat protein: 516 nM
[4]
  apparent KD of MS2 coat protein: 15.1 nM

## AAAGUGUCAGGAUAUUGUUAGUUUAGUUGUUUGUAUUAGUUCGAGAAGGGACAUGAGGAUCACCCAUGUUGUAA [Ex4 #64] (Eterna round: R97, puzzle: Exclusion 4)
Input ligand: FMN 200 uM
  apparent KD of MS2 coat protein: 24.5 nM
Input ligand: none
  apparent KD of MS2 coat protein: 32.2 nM

## UUGGUUGUGGUAGGAUAUCCGUUGGAAACCUUCGGAGAAGGACCACAGUCACUGGGUCUUUGUCUGGUGGACGGUUUCGACCGU [pwkr exNG1 F6.23] (Eterna round: R96, puzzle: Exclusion NG 1)
Input ligand: FMN 200 uM
  apparent KD of MS2 coat protein: 202 nM
[1]
  apparent KD of MS2 coat protein: 281 nM
Input ligand: none
  apparent KD of MS2 coat protein: 559 nM

## ACUAGAUGAGGAUAUGCAUAUUUUCGUGUUCUUCUAGGUUAACAUGAGGAUCACCCAUGUAGAAGGCGUCUAUC [Exclusion 2 - 25] (puzzle: Exclusion 2)
[3]
  apparent KD of MS2 coat protein: 21.6 nM

## CAUUAUUAUCGAGGAUAUCCUAUUGUAAUUCUGGGAGAAGGCGGACUCAACAUGAGGAUCACCCAUGUAAGACGGGUACUAGAG [Ex NG1 #23] (Eterna round: R96, puzzle: Exclusion NG 1)
Input ligand: FMN 200 uM
  apparent KD of MS2 coat protein: 85.1 nM
[1]
  apparent KD of MS2 coat protein: 49.3 nM
Input ligand: none
  apparent KD of MS2 coat protein: 74.8 nM

## GACGCUAAAGGAUAUACAUGAGGAUCACCCAUGUUGAGGAAGGUUAGAUGAGGAGUAAGUAGAAGGUUAGACGA [JR_Exclu3_Sub091] (puzzle: Exclusion 3)
[2]
  apparent KD of MS2 coat protein: 32 nM
[3]
  apparent KD of MS2 coat protein: 27.4 nM
[4]
  apparent KD of MS2 coat protein: 30.8 nM

## UAUUAGCAAGUGAGAUCCCACAUGAGGAUCACCCAUGUGCUCGUCUUAUAACGUACUGUGAGGAAACUCACGGUACG [Sensor-V1 #83] (Eterna round: R97, puzzle: Sensor, turn-off variant 1)
Input ligand: FMN 200 uM
  apparent KD of MS2 coat protein: 47.6 nM
Input ligand: none
  apparent KD of MS2 coat protein: 51.2 nM

## AGCUGUGGCCGAGGAUAUCUAAUAGUCCCAACCGAAAUAUAAUCGGACAUGAGGAUCACCCAUGUAGAGAAGGCGGUCUCAGCA [Eli eng2 - 069] (Eterna round: R96, puzzle: Exclusion NG 2)
Input ligand: FMN 200 uM
  apparent KD of MS2 coat protein: 286 nM
[1]
  apparent KD of MS2 coat protein: 102 nM
Input ligand: none
  apparent KD of MS2 coat protein: 113 nM

## GCGAUAACCGAGGAUAUCGGUGAUAGAGAUAAUUGAGAAGGCGGUACAUGAGGAUCACCCAUGUAUACGUGGGC [Eternabot (L2) Solution 87] (Eterna round: R97, puzzle: Exclusion 6)
Input ligand: FMN 200 uM
  apparent KD of MS2 coat protein: 16.7 nM
Input ligand: none
  apparent KD of MS2 coat protein: 15.7 nM

## GUUAACGAUCAGGAUAUAUCAAAUCAUAGCUUGAUAGAAGGGAUCACAUGAGGAUCACCCAUGUGAUCUUCUUU [jl-ex6-4.14 ViennaUCT mod] (Eterna round: R97, puzzle: Exclusion 6)
Input ligand: FMN 200 uM
  apparent KD of MS2 coat protein: 15.3 nM
Input ligand: none
  apparent KD of MS2 coat protein: 11.7 nM

## CCUUGACAUGAGGAUCACCCAUGUGAGGAUAUAGAAUACAUCAUACACUGACCUCCUUCUAGAAGGCACAUCUC [1986#2] (Eterna round: R97, puzzle: Exclusion 1)
Input ligand: FMN 200 uM
  apparent KD of MS2 coat protein: 14.1 nM
Input ligand: none
  apparent KD of MS2 coat protein: 15.3 nM

## CUAAGUUGGUAAGGAUAUCCUACAUUAUUCUGACCCGUGCAAGCUACAUGAGGAUCACCCAUGUGGGAGAAGGUGCGUUAAUGU [Design 5] (Eterna round: R96, puzzle: Exclusion NG 2)
Input ligand: FMN 200 uM
  apparent KD of MS2 coat protein: 16.3 nM
[1]
  apparent KD of MS2 coat protein: 13.8 nM
Input ligand: none
  apparent KD of MS2 coat protein: 20.3 nM

## CAGUACUGAGGAUAUACAUGAGGAUCACCCAUGUGUCCCUGCUAGGAAACUAGCAAAAGUAGAAGGCAGUACUG [Fiskers Ex 3 828 mod 3] (puzzle: Exclusion 3)
[2]
  apparent KD of MS2 coat protein: 298 nM
[3]
  apparent KD of MS2 coat protein: 21.3 nM
[4]
  apparent KD of MS2 coat protein: 21.2 nM

## UGAGUGCUGCGAGGAUAUACAUGAGGAUCACCCAUGUAAUCGUGUGAGGCUAUGCCUCACACGAAGUAGAAGGCGCAGUACUCU [Mat - Exclusion NG 2 - Mod of JL - D16] (Eterna round: R96, puzzle: Exclusion NG 2)
Input ligand: FMN 200 uM
  apparent KD of MS2 coat protein: 9.98 nM
[1]
  apparent KD of MS2 coat protein: 8.33 nM
Input ligand: none
  apparent KD of MS2 coat protein: 9.63 nM

## UGCAUGUGAGGAUAUGUGUACUGUUUUUUGUUUAGAUGUACACAGAAGGCACAUGAGGAUCACCCAUGUAGUAC [Ex4 - 3 - 33] (puzzle: Exclusion 4)
[3]
  apparent KD of MS2 coat protein: 46.1 nM

## GUCAGCUCGUGAGGAUAUGCACAUGAGGAUCACCCAUGUAAGAUCAAGCUGCUUCGGCAGCAAGUGCAGAAGGCACGAGCUGAC [ENG2/9-A1] (Eterna round: R96, puzzle: Exclusion NG 2)
Input ligand: FMN 200 uM
  apparent KD of MS2 coat protein: 137 nM
[1]
  apparent KD of MS2 coat protein: 138 nM
Input ligand: none
  apparent KD of MS2 coat protein: 303 nM

## AGCGCCAUCGUGAGAUGGCGUAUUACAUGAGGAUCACCCAUGUAGGAUAUCGAUUGCUUUGCAGUCGAGAAGGGCAUGUACCAG [JL ENG3 3.80 Mod K] (Eterna round: R96, puzzle: Exclusion NG 3)
Input ligand: FMN 200 uM
  apparent KD of MS2 coat protein: 54.7 nM
[1]
  apparent KD of MS2 coat protein: 32.8 nM
Input ligand: none
  apparent KD of MS2 coat protein: 46 nM

## GCUAGAGCAGGAUAUUUAGAUCCUCACAUGAGGAUCACCCAUGUGGCCGAAAGGCUAAGGAGAGAAGGGCUCUAGC [Omei Ex5 E23] (Eterna round: R97, puzzle: Exclusion 5)
Input ligand: FMN 200 uM
  apparent KD of MS2 coat protein: 1580 nM
Input ligand: none
  apparent KD of MS2 coat protein: 933 nM

## GGAAAACAUGAGGAUCACCCAUGUAAGGAUAUGCAAAAGGAUAUAGAAGGAAAAAUAAGCAGAAGGUACAAAGG [salish99-ex1_r3_097] (puzzle: Exclusion 1)
[2]
  apparent KD of MS2 coat protein: 50.9 nM
[3]
  apparent KD of MS2 coat protein: 42.5 nM
[4]
  apparent KD of MS2 coat protein: 43.5 nM

## AGUCAGGCGGUAGGAUAUCCAAAUCGAGUGACCCUCUCAUAACAUGAGGAUCACCCAUGUCGGUGGGAGAAGGGCCGUAAGGCG [Mat - Exclusion NG 2 - Mod of JL - D63] (Eterna round: R96, puzzle: Exclusion NG 2)
Input ligand: FMN 200 uM
  apparent KD of MS2 coat protein: 48.2 nM
[1]
  apparent KD of MS2 coat protein: 25.8 nM
Input ligand: none
  apparent KD of MS2 coat protein: 29.5 nM

## ACAUGAGGAUCACCCAUGUGACCAUGAUGGCUGAUGUAGAGCUAGGAUAUGAGUGAAUAUCUAUCUCAGAAGGAGCUUGACUGG [Deportation 48 - Jieux - Exclusion NG 3] (Eterna round: R96, puzzle: Exclusion NG 3)
Input ligand: FMN 200 uM
  apparent KD of MS2 coat protein: 16.7 nM
[1]
  apparent KD of MS2 coat protein: 15.4 nM
Input ligand: none
  apparent KD of MS2 coat protein: 21.3 nM

## ACAUGUGUUGUAGGAUAUAGGAUACAUGAGGAUCACCCAUGUGGAUUCAUGUCAAAGGAAGCGUCCUAGAAGGACGGCAACAUG [Ex NG2 #24] (Eterna round: R96, puzzle: Exclusion NG 2)
Input ligand: FMN 200 uM
  apparent KD of MS2 coat protein: 46.6 nM
[1]
  apparent KD of MS2 coat protein: 38.3 nM
Input ligand: none
  apparent KD of MS2 coat protein: 49.6 nM

## UACAAGCUUUGGCGAUCCUACAUGAGGAUCACCCAUGUGGGCCCGCCAGAGGCGGGCCCAUUUGCCCGUCUUGUGAA [Energy optimization 2] (Eterna round: R97, puzzle: Sensor, turn-off variant 1)
Input ligand: FMN 200 uM
  apparent KD of MS2 coat protein: 16.3 nM
Input ligand: none
  apparent KD of MS2 coat protein: 16.3 nM

## UCUGGGUCUGUGAGGAUAUCGGGCCCGAAAGGGCCCGAGAAGGCACAUGAGGAUCACCCAUGUAAGGGCUCGGG [-38.4, -36.3 kcal, A 23%, 0-7bis] (Eterna round: R97, puzzle: Brourd's mod of Exclusion 4)
Input ligand: FMN 200 uM
  apparent KD of MS2 coat protein: 20.3 nM
Input ligand: none
  apparent KD of MS2 coat protein: 25 nM

## CUGGUCCGAGGAUAUAUUAAGUGAUACAUGAGGAUCACCCAUGUAAUUUGAUGGAUGUAAAUAGAAGGCGGACUAG [JL-ex5-3.10] (puzzle: Exclusion 5)
[2]
  apparent KD of MS2 coat protein: 36.8 nM
[3]
  apparent KD of MS2 coat protein: 63.5 nM
[4]
  apparent KD of MS2 coat protein: 45 nM

Source: the supplement of paper PMC9170038
